Laboratory results: patent publication CN112125972A (SINOCELLTECH LTD, dated 2020)

Legend:
Assay in all cases: indirect ELISA, VLP coated at 2 μg/mL
HPV6 VLP = biological target: T1, HPV6 VLP (Human papillomavirus type 6, UniProt P69899 1-500)
T1 construct: also called HPV6完整VLP蛋白
T1 sequence: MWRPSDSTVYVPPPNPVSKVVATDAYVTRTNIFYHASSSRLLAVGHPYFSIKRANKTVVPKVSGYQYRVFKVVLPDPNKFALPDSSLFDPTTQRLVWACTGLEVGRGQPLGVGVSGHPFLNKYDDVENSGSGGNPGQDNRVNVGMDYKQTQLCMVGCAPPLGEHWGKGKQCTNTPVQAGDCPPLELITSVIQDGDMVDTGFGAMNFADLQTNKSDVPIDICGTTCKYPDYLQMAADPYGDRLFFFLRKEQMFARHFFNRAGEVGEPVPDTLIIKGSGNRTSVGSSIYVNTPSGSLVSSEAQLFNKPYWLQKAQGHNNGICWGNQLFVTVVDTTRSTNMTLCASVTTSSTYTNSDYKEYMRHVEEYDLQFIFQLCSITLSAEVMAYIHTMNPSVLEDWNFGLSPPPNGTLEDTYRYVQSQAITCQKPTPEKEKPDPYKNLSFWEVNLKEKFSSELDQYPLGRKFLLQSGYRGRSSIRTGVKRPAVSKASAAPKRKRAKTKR

HPV52 VLP = biological target: T2, HPV52 VLP (Human papillomavirus type 52, UniProt Q05138 27-529)
T2 construct: also called HPV52完整VLP蛋白
T2 sequence: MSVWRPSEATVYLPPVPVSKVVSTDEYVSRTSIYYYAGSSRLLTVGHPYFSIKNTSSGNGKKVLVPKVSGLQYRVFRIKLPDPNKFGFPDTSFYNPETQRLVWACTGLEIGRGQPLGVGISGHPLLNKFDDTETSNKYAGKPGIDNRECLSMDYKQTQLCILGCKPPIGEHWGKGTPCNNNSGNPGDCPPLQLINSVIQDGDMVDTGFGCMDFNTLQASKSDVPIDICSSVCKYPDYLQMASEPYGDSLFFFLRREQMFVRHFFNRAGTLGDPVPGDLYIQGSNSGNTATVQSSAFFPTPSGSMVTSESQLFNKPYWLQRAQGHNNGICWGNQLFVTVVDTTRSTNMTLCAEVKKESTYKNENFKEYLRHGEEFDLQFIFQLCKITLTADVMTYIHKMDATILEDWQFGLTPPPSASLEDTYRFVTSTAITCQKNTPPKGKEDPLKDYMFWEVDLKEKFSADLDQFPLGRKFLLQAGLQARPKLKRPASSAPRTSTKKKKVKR

HPV58 VLP = biological target: T3, HPV58 VLP (Human papillomavirus type 58, UniProt P26535 27-524)
T3 construct: also called HPV58完整VLP蛋白
T3 sequence: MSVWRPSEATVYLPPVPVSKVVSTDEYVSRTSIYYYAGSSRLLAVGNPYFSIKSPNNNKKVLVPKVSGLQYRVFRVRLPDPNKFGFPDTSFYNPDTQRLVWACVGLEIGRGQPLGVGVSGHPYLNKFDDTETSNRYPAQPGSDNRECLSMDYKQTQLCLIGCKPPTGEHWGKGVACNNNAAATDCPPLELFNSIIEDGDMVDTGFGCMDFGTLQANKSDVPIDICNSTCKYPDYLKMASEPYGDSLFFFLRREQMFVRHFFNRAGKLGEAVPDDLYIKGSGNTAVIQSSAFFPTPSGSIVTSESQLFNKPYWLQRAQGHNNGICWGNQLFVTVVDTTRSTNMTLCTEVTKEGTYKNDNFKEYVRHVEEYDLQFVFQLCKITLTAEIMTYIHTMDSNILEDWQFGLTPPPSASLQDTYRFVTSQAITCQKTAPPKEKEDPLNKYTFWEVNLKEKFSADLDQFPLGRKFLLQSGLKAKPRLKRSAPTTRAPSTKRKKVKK

HPV56 VLP = biological target: T4, HPV56 VLP (Human papillomavirus type 56, UniProt P36743 36-534)
T4 construct: also called HPV56完整VLP蛋白
T4 sequence: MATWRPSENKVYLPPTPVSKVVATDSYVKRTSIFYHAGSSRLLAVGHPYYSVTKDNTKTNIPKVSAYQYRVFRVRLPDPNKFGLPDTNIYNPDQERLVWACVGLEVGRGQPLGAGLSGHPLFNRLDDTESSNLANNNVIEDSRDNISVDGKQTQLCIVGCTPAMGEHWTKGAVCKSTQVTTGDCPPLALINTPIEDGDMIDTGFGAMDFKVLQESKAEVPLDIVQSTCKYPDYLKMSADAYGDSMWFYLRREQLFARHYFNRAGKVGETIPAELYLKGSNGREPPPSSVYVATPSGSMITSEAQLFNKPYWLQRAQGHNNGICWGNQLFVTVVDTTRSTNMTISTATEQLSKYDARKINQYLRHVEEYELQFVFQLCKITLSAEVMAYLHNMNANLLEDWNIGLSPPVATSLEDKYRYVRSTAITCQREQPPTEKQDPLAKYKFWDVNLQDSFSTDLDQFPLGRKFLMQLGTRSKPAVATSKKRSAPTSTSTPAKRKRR

Measured: binding result

B1: HPV 16 R001 (antibody, V domains shown)
VH: QSVKESEGRLVTPGTPLTLTCTASGFTMSRYHMTWVRQAPGKGLEWIGIIYARNSDTYYANWAKGRFTISKTSTTVDLKITSPTIEDTATYFCARVDSDSSGAFDRLDLWGQGTLVTVSS
VL: DPMLTQTAASVEVAVGGTVTIKCQASQSIGGYLSWYQQKPGQRPKLLIYRASTLASGVPSRFKGSGSGTEYTLTFSGVECADAAAYYCQQGYTSSDINNAFGGGTEVVVK
notes: An HRP-labelled form served as detection antibody in the sandwich ELISA; also called HPV16.001; 单克隆抗体HPV 16 R001
no binding (tested: 10ng/mL): all assays above
